Reference: PMC11203576 (International Journal of Molecular Sciences, 2024)

Biological target: T1, SARS-CoV-2 spike protein RBD, original (wild-type), sfGFP fusion (SARS-CoV-2, UniProt P0DTC2)
T1 construct: also called original RBD; original SARS-CoV-2 RBD
Assay: SPR; Biacore T200; […] (0.01 M HEPES, 0.15 M NaCl, 3 mM EDTA, 0.05% surfactant P20, […]
Conditions: both partners purified

B1: Recombinant Microcystis viridis NIES-102 lectin (rMVL) (natural protein)
chain: MASYKVNIPAGPLWSNAEAQQVGPKIAAAHQGNFTGQWTTVVESAMSVVEVELQVENTGIHEFKTDVLAGPLWSNDEAQKLGPQIAASYGAEFTGQWRTIVEGVMSVIQIKYTF
notes: also called Microcystis viridis lectin
  Kd: 2080 nM
